Reference: US20050221343A1
Where “and” joins values, the source holds several entries; their conditions need not be identical. Equal entries are not always repeated.

Key:
Assay in all cases: cell-based or functional assay
[1] = molecular target: (GFP S10 A10)-L1-NdeI::HPS::BamH1-L2-(GFP S11 SM5) (Pyrobaculum aerophilum)
[2] = molecular target: (GFP S10 SM5)-L1-sulfite reductase-L2-(GFP S11 SM5) (Pyrobaculum aerophilum)
[3] = molecular target: (GFP S10)-L1-sulfite reductase-L2-(GFP S11) (Pyrobaculum aerophilum)
[4] = molecular target: sulfite reductase-GFP S10-11 OPT fusion protein (Pyrobaculum aerophilum; Aequorea victoria)

Sequence of (GFP S10 A10)-L1-NdeI::HPS::BamH1-L2-(GFP S11 SM5) (Pyrobaculum aerophilum) (main, as listed by the source): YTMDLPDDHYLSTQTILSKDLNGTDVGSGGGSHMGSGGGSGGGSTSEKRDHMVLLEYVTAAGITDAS
Sequence of (GFP S10 SM5)-L1-sulfite reductase-L2-(GFP S11 SM5) (Pyrobaculum aerophilum) (main, as listed by the source): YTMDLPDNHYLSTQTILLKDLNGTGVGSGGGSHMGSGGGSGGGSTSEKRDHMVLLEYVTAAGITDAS

complementation signal relative to detection with GFP 1-10 OPT [1]: 0.2 and 0.25
complementation rate [2]: 20 fold
complementation efficiency relative to the C-terminal GFP S11 M3 + GFP 1-10 OPT format [3]: 0.033
tagged fragment concentration at which complementation fluorescence plateaus, with limiting 2.5 µM GFP 1-9 OPT [4]: > 2.5 µM
Substance: GFP 1-9 OPT (from UniProt P42212 1-197)
